The supplement of paper PMC10126150
± gives the standard deviation of the averaged measurements.

System: ATP
Test: switch fluorescence ratio, 500 uM ATP over buffer (Cy3 cluster intensity, sum of 5 cycles each) (fold (ratio)); higher = stronger signal-on switching upon ATP binding; sequences stand for … in TCGTCGGCAGCGTCAGATGTGTATAAGAGACAGTTTTTTTTTTTTTTTTTTTTTTTTT…TC
Conditions: aptamer strand: ATP DNA aptamer (quencher-CACCTGGGGGAGTATTGCGGAGGAAGG + anchor), 100 nM annealed; ATP concentration: 500 uM
Method in brief: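 Clusters carrying Cy3-labelled switching strands on a modified Illumina MiSeq flow-cell were annealed to 100 nM quencher-labelled ATP aptamer and imaged in selection buffer. They were imaged again after 15 min with 500 uM ATP at 22 °C, over five buffer/ATP cycles with NaOH stripping and re-annealing in between. For each cluster, the fluorescence ratio is the summed Cy3 intensity of the target cycles divided by that of the buffer cycles, averaged per switch-domain sequence. Clusters outside 100-1000 RFU were left out.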
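Note: ATP exposure 15 min at 22 °C before imaging.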

Sequence | switch fluorescence ratio
ATAAAAAGGG | 1 ± 0.029
ATAAAAGGTG | 1.1 ± 0.074
ATAAAATTTA | 1.04 ± 0.03
ATAAAATTTT | 1 ± 0.03
ATAAACGACT | 1.06 ± 0.024
ATAAAGGCGA | 0.975 ± 0.043
ATAAAGGGCT | 0.988 ± 0.054
ATAAAGGTTG | 0.993 ± 0.016
ATAAAGTATG | 0.99 ± 0.018
ATAAAGTTTC | 1.03 ± 0.015
ATAAATACAG | 0.9959 ± 0.0042
ATAAATGTGT | 1.01 ± 0.041
ATAAATGTTA | 0.999 ± 0.011
ATAACACTTC | 1.03 ± 0.015
ATAACCGTGG | 1.05 ± 0.074
ATAACGAGTC | 1.04 ± 0.15
ATAACGTAGC | 1.11 ± 0.059
ATAACTTATA | 1.011 ± 0.0041
ATAAGACCCG | 0.98609 ± 0.00056
ATAAGAGTCT | 1.03 ± 0.094
ATAAGGAACG | 1.01 ± 0.061
ATAAGGAGAT | 0.9759 ± 0.0042
ATAAGGAGGA | 1.1 ± 0.23

Sequence | switch fluorescence ratio
ATAAGGCATG | 0.975 ± 0.021
ATAAGGCTCG | 0.966 ± 0.011
ATAAGGGAAC | 1.04 ± 0.017
ATAAGGGGAG | 0.999 ± 0.027
ATAAGGGGGA | 0.998 ± 0.022
ATAAGGGGTG | 1.02 ± 0.069
ATAAGGGTTC | 1.03 ± 0.043
ATAAGGTAG | 1.004 ± 0.0026
ATAAGTAAAG | 1.01 ± 0.021
ATAAGTATGA | 1.01 ± 0.034
ATAAGTCACG | 1.06 ± 0.028
ATAAGTGGCA | 0.944 ± 0.027
ATAAGTGGG | 0.983 ± 0.018
ATAAGTGTGT | 0.958 ± 0.047
ATAAGTGTTA | 0.9898 ± 0.0031
ATAAGTTGAT | 1.01 ± 0.03
ATAAGTTGCT | 0.968 ± 0.024
ATAAGTTTGG | 1.02 ± 0.033
ATAATAATGG | 1 ± 0.037
ATAATAGAGC | 1 ± 0.023
ATAATATGAG | 0.993 ± 0.056
ATAATATTGT | 0.999 ± 0.0022
ATAATCGGCA | 1.01 ± 0.054

Sequence | switch fluorescence ratio
ATAATCTGGT | 0.9965 ± 0.0049
ATAATGCTCT | 1.02 ± 0.024
ATAATGGCCT | 1.02 ± 0.026
ATAATGGGGT | 1.026 ± 0.0044
ATAATGTACA | 1.04 ± 0.011
ATAATGTGGG | 0.99618 ± 0.00014
ATAATGTTTT | 1 ± 0.021
ATAATTAATT | 0.958 ± 0.03
ATAATTCTAT | 0.9819 ± 0.008
ATACAAGTCT | 1.03 ± 0.059
ATACACGGCA | 1.11 ± 0.03
ATACAGCACC | 1.45 ± 0.048
ATACAGGGGG | 1.02 ± 0.067
ATACATCTAG | 0.996 ± 0.044
ATACCTGAG | 1.53 ± 0.057
ATACGAGGTC | 1.01 ± 0.03
ATACGAGGTG | 1.07 ± 0.035
ATACGCTGGT | 0.9993 ± 0.0042
ATACGGAGGC | 1.03 ± 0.1
ATACGGGAGC | 1.01 ± 0.048
ATACGGGGAT | 1.014 ± 0.0093
ATACGGGGTT | 1.008 ± 0.0032
ATACGGGTTT | 1.024 ± 0.0097

Sequence | switch fluorescence ratio
ATACGGTTTT | 0.996 ± 0.026
ATACGTAGTC | 1.07 ± 0.014
ATACTAGGAG | 1 ± 0.026
ATACTAGGGG | 1.01 ± 0.02
ATACTCTGTT | 0.9926 ± 0.0031
ATACTGAGGA | 1.05 ± 0.026
ATACTGGTAG | 1.02 ± 0.047
ATACTGTTAC | 1.359 ± 0.0057
ATACTTAGGT | 1.07 ± 0.1
ATACTTGTAT | 1.0048 ± 0.00054
ATAGAAGAGA | 0.985 ± 0.027
ATAGAAGTTA | 0.985 ± 0.031
ATAGACAGGC | 1.04 ± 0.021
ATAGACGCTA | 1.12 ± 0.017
ATAGACGGTT | 1.02 ± 0.048
ATAGACTAGA | 0.9856 ± 0.003
ATAGACTGAG | 0.983 ± 0.012
ATAGACTTCT | 0.9966 ± 0.0064
ATAGACTTTA | 1.04 ± 0.043
ATAGAGTGGG | 0.966 ± 0.019
ATAGATGGTG | 0.987 ± 0.025
ATAGATTGCC | 0.993 ± 0.022
ATAGCAGTTA | 1.02 ± 0.01

Sequence | switch fluorescence ratio
ATAGCCGGAC | 1.081 ± 0.008
ATAGCCGGGT | 1.04 ± 0.088
ATAGCGGAGA | 1 ± 0.036
ATAGCTCTTA | 0.9764 ± 0.0074
ATAGCTGGAA | 0.9678 ± 0.0011
ATAGCTTCAC | 1.15 ± 0.015
ATAGGAAGGA | 1.04 ± 0.056
ATAGGAATGG | 1.02 ± 0.023
ATAGGAGGGC | 0.935 ± 0.036
ATAGGAGTGG | 0.964 ± 0.053
ATAGGATGGA | 1 ± 0.029
ATAGGATGTG | 1.01 ± 0.023
ATAGGCCTTG | 1.01 ± 0.031
ATAGGCGGTT | 1.02 ± 0.012
ATAGGGCCAG | 1.06 ± 0.067
ATAGGGGCAG | 0.996 ± 0.03
ATAGGGGCTT | 0.9989 ± 0.0085
ATAGGGGGCA | 0.98 ± 0.023
ATAGGGGGTA | 1 ± 0.015
ATAGGGGTTC | 0.994 ± 0.035
ATAGGGTCGG | 1.02 ± 0.063
ATAGGGTTTC | 0.99 ± 0.01
ATAGGTCTGC | 0.975 ± 0.038

Sequence | switch fluorescence ratio
ATAGTAAGCC | 1.04 ± 0.031
ATAGTAATCG | 0.988 ± 0.064
ATAGTAGGGG | 0.994 ± 0.045
ATAGTAGTCG | 1.03 ± 0.1
ATAGTATATG | 0.9786 ± 0.0088
ATAGTATTGA | 0.969 ± 0.022
ATAGTGAGTA | 0.996 ± 0.018
ATAGTGCTTG | 0.988 ± 0.046
ATAGTGGCGC | 0.997 ± 0.016
ATAGTTACGC | 1.03 ± 0.022
ATAGTTATTT | 0.989 ± 0.014
ATAGTTGGGG | 1.02 ± 0.045
ATAGTTTTCG | 1 ± 0.034
ATATAAAACG | 0.983 ± 0.018
ATATAAATTT | 1 ± 0.025
ATATAACAGG | 1.03 ± 0.048
ATATAATTTT | 0.979 ± 0.031
ATATACCGTC | 1.05 ± 0.028
ATATAGAGG | 1.02 ± 0.019
ATATAGGGTT | 1.04 ± 0.038
ATATAGTCTG | 0.9893 ± 0.0046
ATATATATGG | 1.03 ± 0.035
ATATATCGGG | 0.999 ± 0.013

Sequence | switch fluorescence ratio
ATATATTCC | 1.1 ± 0.019
ATATATTTTA | 1.01 ± 0.022
ATATCAATC | 1.02 ± 0.034
ATATCAATGG | 1.058 ± 0.0082
ATATCCCAGG | 4.21 ± 0.64
ATATCCCTCG | 1.01 ± 0.013
ATATCCGGGA | 1.03 ± 0.015
ATATCGGGGG | 1.01 ± 0.081
ATATCGTCGG | 0.988 ± 0.028
ATATCGTGCA | 0.9972 ± 0.006
ATATCTGGCA | 1.02 ± 0.032
ATATGATTGA | 0.9686 ± 0.0044
ATATGCGAAC | 1.1 ± 0.035
ATATGCGGGT | 0.985 ± 0.032
ATATGCTAAG | 0.9935 ± 0.0099
ATATGGAATT | 0.977 ± 0.0046
ATATGGATGT | 0.997 ± 0.029
ATATGGATTA | 1.012 ± 0.0068
ATATGGGGGG | 0.998 ± 0.023
